For orientation: Km means the concentration of substrate that gives half-maximal velocity.

The values that follow come from publication PMC12861478, “Amino acid transporter CsBAT links GABA accumulation to flavonoid metabolism in Camellia sinensis” (Horticulture Research, 2025).

Holding throughout (experiment): cells, lysate or membranes
Substrate in series [1]: CCNC(=O)CC[C@H](N)C(=O)O
The settings on record: transport; nitrogen-starved cells in nitrogen-free YNB.

Substrate in series [2]: NC(=O)CC[C@H](N)C(=O)O
The settings on record: transport; nitrogen-starved cells in nitrogen-free YNB.

Substrate in series [3]: NCCCC(=O)O
The settings on record: transport; nitrogen-starved cells in nitrogen-free YNB; 0.09375–8 mM GABA; H+-dependent.

Substrate in series [4]: N[C@@H](CCC(=O)O)C(=O)O
The settings on record: transport; nitrogen-starved cells in nitrogen-free YNB.

B1: CsBAT (Camellia sinensis) (protein)
chain: MGWHSHSHVQNGDSSLDTGHTRLHELGYKQELKRDLSVVSNFAFSFSIISVLTGITTLYNTGLNYGGPVVLVYGWLIAGVFTMIVGLSMAEICSSYPTSGGLYYWSAKLAGPSWAPFASWLTGWFNIVGQWAVTTSVDFSLAQLIQVIILLSTGGKNGGGYQASKYVVIGIHGGILLLHAIINSLPITWLSLFGQFAALWNLIGVFVLMILIPTVAKEKASAKFVFTFFNTDNGDGINSKVYIFVLGLLMSQYTLTGYDASAHMTEETKSADKNGPKGIISAIGISVIVGWGYLLGVTFAVTKIPNLLSENNDAGGYAIAEVFYLAFKNRYGNGIGGIICLGVVAVAIFFCGMSSITSNSRMAYAFSRDGAMPLSSVWHKVNKHEVPLNAVWLSAIIAFCMALTSLGSIVAFQAMVSIATIGLYIAYALPIFFRVTLARKSFTPGPFNLGRYGVLVGWIAVLWVATISVLFSLPVSYPITDQTLNYTPVAVGGLLILTVASWIFSARHWFKGPITNIDDVL
B1: the Michaelis constant (Km) in series [1] amounted to 360 ± 30 µM; in series [2] it was 400 ± 40 µM; in series [3], 290 ± 20 µM; in series [4], 580 ± 50 µM.
